# Changes are numbered by the printed parent chain.
# T1: Biotinylated CD96 antigen (human, UniProt P40200-2 22-503, limits assumed, biotinylated)
# T1 sequence (looked up): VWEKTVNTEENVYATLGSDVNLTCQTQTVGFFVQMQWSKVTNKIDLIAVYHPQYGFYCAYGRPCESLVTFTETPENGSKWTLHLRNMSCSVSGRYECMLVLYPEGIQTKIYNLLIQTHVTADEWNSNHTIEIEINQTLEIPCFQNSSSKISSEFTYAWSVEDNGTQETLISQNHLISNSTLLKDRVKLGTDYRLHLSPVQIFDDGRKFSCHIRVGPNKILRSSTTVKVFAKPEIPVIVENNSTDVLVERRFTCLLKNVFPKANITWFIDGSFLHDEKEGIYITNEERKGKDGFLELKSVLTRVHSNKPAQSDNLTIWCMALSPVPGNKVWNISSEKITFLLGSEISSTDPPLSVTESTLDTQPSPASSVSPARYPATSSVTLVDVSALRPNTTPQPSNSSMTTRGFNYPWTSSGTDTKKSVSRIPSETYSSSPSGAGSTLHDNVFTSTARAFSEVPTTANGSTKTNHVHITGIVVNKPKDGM
# T2: CD96 epitope peptide #9 (137-156) (human)
# T2 peptide: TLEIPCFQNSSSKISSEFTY
# T3: CD96 epitope peptide #10 (149-170) (human)
# T3 peptide: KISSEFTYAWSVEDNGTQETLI
# T4: CD96 epitope peptide #18 (265-284) (human)
# T4 peptide: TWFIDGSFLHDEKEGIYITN
# T5: CD96 epitope peptide #4 (62-81) (human)
# T5 peptide: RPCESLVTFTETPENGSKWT
# T6: CD96 epitope peptide #21 (310-329) (human)
# T6 peptide: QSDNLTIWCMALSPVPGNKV
# T7: CD96 epitope peptide #19 (280-299) (human)
# T7 peptide: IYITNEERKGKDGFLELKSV
# B1: h1719-010 (antibody, V domains shown)
# VH: EVTLKESGPVLVKPTETLTLTCTVSGFSLSSYGVSWVRQPPGKGLEWLGVIWGDGNTNYHSVLISRLTISKDTSKSQVVLTLTNMDPVDTATYYCAKQNYYGSRYGYPIDYWGQGTTVTVSS
# VL: DIQMTQSPSSVSASVGDRVTITCKATQDVGTAVAWYQQKPGKAPKLLIYWASTRHTGVPSRFSGSGSGTDFTLTISSLQPEDFATYYCQQYGSSVLTFGGGTKVEIK
# notes: Only variable regions are tied to this name
# B2: ch1720 (antibody, human IgG4 S228P, kappa, V domains shown)
# VH: EFQLQQSGPELVKPGASVKISCKASAYSLTDYNMNWVKQSNGKSLEWIGVINPSYGISSYNQKFKGKATLTVDQSSSTAYMHLNSLTSEDSAVYYCARQLRLPGYFDVWGTGTTVTVSS
# VL: DIKMTQSPSSKNASLGERVTITCKASQDINSYLNWFQQKPGKSPKTLIYRASRLVDGVPSRFSGSGSGQDYSLTISSLEYEDMGIYYCLKYDEFPYTFGGGTKLEIKR
# notes: also called chimeric antibody corresponding to m1720
# B3: h1718-012 (antibody, V domains shown)
# VH: EVQLVQSGAEVKKPGASVKVSCKASGYTITDYNMNWVRQAPGQRLEWIGVINPSYGITDYNQNFKDRVTITVDTSASTAYMELSSLRSEDTAVYYCAIQLRLPGYFDVWGQGTTVTVSS
# VL: DIQMTQSPSSLSASVGDRVTITCKASQDINQYLNWFQQKPGKAPKTLIYRANRLVDGVPSRFSGSGSGQDYTLTISSLQPEDFATYYCLKYDEFPYTFGGGTKVEIK
# notes: as for B1
# B4: h1721-003 (antibody, V domains shown)
# VH: EVTLKESGPVLVKPTETLTLTCTVSGFSLSSYGVNWIRQPPGKALEWLGVIWGDGSTNYHSALISRLTISKDTSKSQVVLTLTNMDPVDTATYYCAKNYFYGSRYGYAMDSWGQGTTVTVSS
# VL: DIQMTQSPSSLSASVGDRVTITCRASENIYSSLAWYQQKPGKAPKLLIYNAKTLIEGVPSRFSGSGSGTDFTLTISSLQPEDFATYYCQHHYGTPYTFGGGTKVEIK
# notes: Only variable regions are tied to this name; also called M721-003
# B5: ch1719 (antibody, human IgG4 S228P, kappa, V domains shown)
# VH: QVQLKESGPGLVAPSQSLSITCTVSGFSLISYGVSWVRQPPGKGLEWLGVIWGDGNTNYHSVLISRLSIRKDDSKSQVFLKLNSLQTDDTATYYCAKNNYYGSRYGYPMDYWGQGTSVTVSS
# VL: DIVMTQSHKFMSTSVGDRVSITCKATQDVGTAVAWYQQKPGHSPKLLIYWASTRHTGVPERFTGSGSGTDFTLTIDNVQSEDLADYFCQQYGSSVLTFGAGTKVELRR
# notes: also called chimeric antibody corresponding to m1719
# B6: ch1721 (antibody, human IgG4 S228P, kappa, V domains shown)
# VH: B5 VH with S35N, N56S, V62A, R70S, K81N, N99Y, Y100F, P108A, Y111S, T116I
# VL: DIQMTQSPASLSAAVGETVTITCRASENIYSSLAWYQQKQGKSPQLLVYNAKTLIETVASRFSGSGSGTQYSLKINSLQPEDFGSFYCQHHYGTPYTFGGGTKLEIKR
# notes: also called chimeric antibody corresponding to m1721
# Biological target: T1, Biotinylated CD96 antigen
# Experiment: competition ELISA: antibody B pre-incubated with biotinylated CD96 antigen, added to a plate coated with antibody A, HRP-streptavidin, OD450; competitor: coated h1719-014 (named by the legend paragraph 84)
# Protocol: (§1) Competitive assays of different antibodies binding to CD96 protein were used to classify binding epitopes of the antibodies. The specific experimental methods are as follows:
# (§2) Antibody A was diluted to a concentration of 2 μg/ml with PBS buffer (Shanghai Yuanpei Biotechnology Co., Ltd. Cat No. B320), pH 7.4, added to a 96-well microtiter plate (Corning, Cat No. CLS3590-100EA) at a volume of 50 μl/well, and coated at 4° C. overnight. After discarding the liquid, 250 μl/well of 5% skim milk (BD skim milk, Cat No. 232100) blocking solution diluted with PBS was added, and the plate was incubated at 37° C. for 3 hours. After blocking, the blocking solution was discarded, and the plate was washed 5 times with PBST buffer (pH 7.4 PBS containing 0.05% tween-20) and stored for later use. Antibody B was diluted to 40 μg/ml and 8 μg/ml with 1% BSA, and Biotinylated CD96 antigen was simultaneously diluted to 4 μg/mL. Subsequently, antibody B and antigen were mixed in a 1:1 volume ratio, pre-incubated at 37° C. for 45 minutes, added into the enzyme plate coated with antibody A, thus incubating the plate in an incubator at 37° C. for 1.5 hours. After incubation, the plate was washed for 5 times with PBST, and 50 μl/well of HRP-labeled streptavidin (Sigma, Cat No. 52438) diluted with sample dilution was added, followed by incubating the plate at 37° C. for 1 hour. After washing the plate 5 times with PBST, 50 μl/well of TMB chromogenic substrate (KPL, Cat No. 52-00-03) was added for color development, followed by adding 50 μl/well of 1M H₂SO₄ to stop the reaction. The absorption value was read at 450 nm with a NOVOStar microplate reader, and the OD value was used to determine whether A and B CD96 antibodies compete with each other. Antibodies that compete with each other fall into the same class of antibodies, otherwise belong to different classes of antibodies (see FIG. 3 and Table 18).
row,Binder,IC50 (read off the curve)
1,B1,~400 pM
2,B2,~1000 pM
3,B3,~400 pM
4,B4,~400 pM

# Biological target: T1, Biotinylated CD96 antigen
# Experiment: competition ELISA: antibody B pre-incubated with biotinylated CD96 antigen, added to a plate coated with antibody A, HRP-streptavidin, OD450; competitor: coated h1721-003
# Protocol: as §1, §2
row,Binder,IC50 (read off the curve)
1,B1,~400 pM
2,B3,~400 pM
3,B4,~400 pM

# Biological target: T2, CD96 epitope peptide #9 (137-156)
# Experiment: peptide ELISA ('-' indicates no binding, table note)
# Protocol: (§3) The epitopes recognized by anti-CD96 antibody were detected by the assay of binding the antibody to different polypeptide fragments of CD96 protein. The fragments of different polypeptides of the CD96 antigen were coated on the microtiter plate. The signal density after the antibody was added was used to judge the binding activity of the antibody and the polypeptide. The specific experimental method is as follows:
# (§4) The polypeptides were diluted to a concentration of 20 μg/ml with PBS buffer (Shanghai Yuanpei Biotechnology Co., Ltd. Cat No. B320), pH 7.4, added to a 96-well microtiter plate (Corning, Cat No. CLS3590-100EA) at a volume of 50 μl/well, and coated at 4° C. overnight. After discarding the liquid, 250 μl/well of 5% skim milk (BD skim milk, Cat No. 232100) blocking solution diluted with PBS was added, and the plate was incubated in an incubator at 37° C. for 3 hours. After blocking, the blocking solution was discarded, and the plate was washed 5 times with PBST buffer (pH 7.4 PBS containing 0.05% tween-20). 50 μl/well of different concentrations of the antibodies to be tested (hybridoma purification antibody or humanized antibody) diluted with sample dilution was added, and the plate was incubated in an incubator at 37° C. for 2 hours. […] After washing the plate 5 times with PBST, 50 μl/well of TMB chromogenic substrate (KPL, Cat No. 52-00-03) was added, the plate was incubated at room temperature for 5-15 min, followed by adding 50 μl/well of 1M H₂SO₄ to stop the reaction. The absorption value was read at 450 nm with a microplate reader (Thermo Scientific MuLtiskan MK3), and the epitopes that CD96 antibody can recognize were analyzed.
row,Binder,binding result
1,B5,no binding
2,B6,no binding
3,B2,no binding

# Biological target: T3, CD96 epitope peptide #10 (149-170)
# Experiment: as above
# Protocol: as §3, §4
row,Binder,binding result
1,B5,no binding
2,B6,no binding
3,B2,no binding

# Biological target: T4, CD96 epitope peptide #18 (265-284)
# Experiment: as above
# Protocol: as §3, §4
row,Binder,binding result
1,B5,no binding
2,B6,no binding
3,B2,no binding

# Biological target: T5, CD96 epitope peptide #4 (62-81)
# Experiment: as above
# Protocol: as §3, §4
row,Binder,binding result
1,B5,no binding
2,B6,no binding
3,B2,no binding

# Biological target: T6, CD96 epitope peptide #21 (310-329)
# Experiment: as above
# Protocol: as §3, §4
row,Binder,binding result
1,B5,no binding
2,B6,no binding
3,B2,no binding

# Biological target: T7, CD96 epitope peptide #19 (280-299)
# Experiment: as above
# Protocol: as §3, §4
row,Binder,binding result
1,B5,no binding
2,B6,no binding
3,B2,no binding

# Biological target: T1, Biotinylated CD96 antigen
# Experiment: competition ELISA: antibody B pre-incubated with biotinylated CD96 antigen, added to a plate coated with antibody A, HRP-streptavidin, OD450; competitor: coated ch1720
# Protocol: as §1, §2
row,Binder,IC50 (read off the curve)
1,B1,~500 pM
2,B3,~500 pM
3,B4,~400 pM

# Source: US20200347130A1 (JIANGSU HENGRUI MEDICINE, published 2020)
